In article PMC6172241, “A multisubstrate reductase from Plantago major: structure-function in the short chain reductase superfamily” (Scientific Reports, 2018) one finds Km, Vmax and kcat/Km data, which are given here for one protein.

Holding throughout (assay): purified protein
Substrate in data set [1]: C/C(C=O)=C\CC/C(C)=C/C=O
The settings on record: 150 µM NADPH, 20 mM MOPS pH 7.0, 3% DMSO, reductive cyclisation to nepetalactol, crystal structure with NADP+ at 1.86 Å.

Substrate in data set [2]: CC(C)=CCC/C(C)=C/C=O
The settings on record: 150 µM NADPH, 20 mM MOPS pH 7.0, 3% DMSO, geranial/neral mixture.

Substrate in data set [3]: CC(=O)[C@H]1CC[C@H]2[C@@H]3CCC4=CC(=O)CC[C@]4(C)[C@H]3CC[C@]12C
The settings on record: 150 µM NADPH, 20 mM MOPS pH 7.0, 3% DMSO, substrate 10-200 µM (limited solubility), crystal structure with NAD+ at 2.7 Å, poor ligand density.

B1: PmMOR (P. major multisubstrate oxido-reductase) (Plantago major) (protein)
chain: MSWWWAGAIGAAKKRSDEDEALPKHSSVALIVGVTGIVGNSLAEILPLADTPSGPWKVYGVARRPRPAWNEDNPINYIRCDISDPKDTQEKLSPLTDITHVFYVTWANRSTEVERCEANGKMLKNVLDVVIPNCPDLKHISLQTGRKHYVGPFELIGKIETHDPPFTEDLPRLKFDNFYYTQEDLLFEEVEKKEGLTWSVHRPGNIFGFSPYSMMNLVGTLCVYAAICKHEGKVLRFPGCKAAWDGYSDCSDADLIAEHHIWAAVDPYAKNEAFNVSNGDVFKWKHFWKVLAEQFGVECGEYEEGENLKLQDLMKGKEPVWEEIVRENGLASTNLEDVAVWWFSDAVLDIPCPLDSMNKSKEHGFLGFRNSKNSFISWIDKAKAYKIVP
By Km is commonly meant the concentration of substrate that gives half-maximal velocity. For orientation: Vmax means the rate approached at saturating substrate. One may read the kcat/Km as the turnover number divided by the Michaelis constant. B1: in the data set “purified protein [1]”, the Michaelis-Menten constant (Km) was determined as 368 ± 37 µM, the Vmax stood at 0.0053 µmol/min and the kcat/Km amounted to 2600 M⁻¹ s⁻¹. For the same protein, in the data set “purified protein [2]”, the Km was found to be 82 ± 4.5 µM, the Vmax is 0.00152 µmol/min and the kcat/Km stood at 17000 M⁻¹ s⁻¹. In addition, in “purified protein [3]”, the Michaelis-Menten constant (Km) turned out to be 28 ± 3.0 µM, the Vmax came to 0.00014 µmol/min and the kcat/Km turned out to be 2100 M⁻¹ s⁻¹.
